For 1 substance, EC50 of Exendin4-induced cAMP generation (LANCE cAMP assay, transfected AD293 cells, 30 min with ligand + 100 µM IBMX) results are on record in PMC9849236.

Targets include hGLP1R-GFP (human) (UniProt P43220); SNAPf-mGLP1R (mouse) (UniProt O35659); SNAP-hGLP1R (human) (UniProt P43220).
UniProt O35659, sequence (O35659 22-463): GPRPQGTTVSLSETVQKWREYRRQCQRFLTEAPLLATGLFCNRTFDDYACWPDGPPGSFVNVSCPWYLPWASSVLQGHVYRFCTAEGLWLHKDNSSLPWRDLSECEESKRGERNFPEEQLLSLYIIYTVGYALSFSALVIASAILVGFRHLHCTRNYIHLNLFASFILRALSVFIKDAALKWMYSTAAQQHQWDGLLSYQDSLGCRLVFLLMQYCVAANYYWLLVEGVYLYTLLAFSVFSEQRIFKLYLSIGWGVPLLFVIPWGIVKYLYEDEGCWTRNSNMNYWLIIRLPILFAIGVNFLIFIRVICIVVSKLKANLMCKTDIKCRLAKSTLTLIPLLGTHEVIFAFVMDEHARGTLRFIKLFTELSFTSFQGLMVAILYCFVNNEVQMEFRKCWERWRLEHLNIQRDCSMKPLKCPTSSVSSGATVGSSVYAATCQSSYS

For Exendin4(1-39) (peptide), the EC50 of Exendin4-induced cAMP generation (LANCE cAMP assay, transfected AD293 cells, 30 min with ligand + 100 µM IBMX) in the test with hGLP1R-GFP (human) turned out to be 5 pM; with SNAPf-mGLP1R (mouse), 4.22 pM; with SNAP-hGLP1R (human) it was 8.02 pM.
